Source: US20200087400A1 (EUREKA THERAPEUTICS, published 2020)

Columns and labels:
[1] = target: T1, control peptide A2E-19/HLA-A*02:01 complex on T2 cells (member of the P19 mixture) (human); experiment: flow cytometry, phage on T2 cells
T1 construct: Loaded on T2 cells as part of the mixture of 19 control peptides
Procedure: (§1) Individual phage clones from enriched phage display panning pools against PSA146/HLA-A*02:01 complex were incubated in the coated plates. Binding of the phage clones was detected by HRP-conjugated anti-M13 antibodies and developed using HRP substrate. The absorbance was read at 450 nm. […] Then, unique antibody clones were identified through DNA sequencing of ELISA-positive clones. […] T2 cells loaded with different peptides and β2M were first stained with purified scFv phage clones, followed by staining with a mouse anti-M13 mAb, and finally R-PE conjugated horse anti-mouse IgG from Vector Labs. Each step of the staining was performed for between 30-60 minutes on ice and the cells were washed twice between stainings. All 16 clones recognized PSA146-loaded T2 cells specifically. FIG. 3 provides examples of PSA146/HLA-A*02:01 specific phage clone binding to peptide-loaded T2 cells through FACS.

Bio-P19 member A2E-1 = target: T2, Bio-P19 member A2E-1 (chain 2: C-terminal BirA substrate peptide (BSP), enzymatically biotinylated; its letters are not printed in the patent and it is left out); experiment: phage ELISA, streptavidin plate, anti-M13-HRP
T2 construct: also called biotinylated control peptide A2E-1/HLA-A*02:01 monomer
Procedure: as §1

Bio-P19 member A2E-10 = target: T3, Bio-P19 member A2E-10 (chain 2: C-terminal BirA substrate peptide (BSP), enzymatically biotinylated; its letters are not printed in the patent and it is left out); experiment: phage ELISA, streptavidin plate, anti-M13-HRP
T3 construct: also called biotinylated control peptide A2E-10/HLA-A*02:01 monomer
Procedure: as §1

Bio-P19 member A2E-11 = target: T4, Bio-P19 member A2E-11 (chain 2: C-terminal BirA substrate peptide (BSP), enzymatically biotinylated; its letters are not printed in the patent and it is left out); experiment: phage ELISA, streptavidin plate, anti-M13-HRP
T4 construct: also called biotinylated control peptide A2E-11/HLA-A*02:01 monomer
Procedure: as §1

Bio-P19 member A2E-13 = target: T5, Bio-P19 member A2E-13 (chain 2: C-terminal BirA substrate peptide (BSP), enzymatically biotinylated; its letters are not printed in the patent and it is left out); experiment: phage ELISA, streptavidin plate, anti-M13-HRP
T5 construct: also called biotinylated control peptide A2E-13/HLA-A*02:01 monomer
Procedure: as §1

Bio-P19 member A2E-14 = target: T6, Bio-P19 member A2E-14 (chain 2: C-terminal BirA substrate peptide (BSP), enzymatically biotinylated; its letters are not printed in the patent and it is left out); experiment: phage ELISA, streptavidin plate, anti-M13-HRP
T6 construct: also called biotinylated control peptide A2E-14/HLA-A*02:01 monomer
Procedure: as §1

Bio-P19 member A2E-15 = target: T7, Bio-P19 member A2E-15 (chain 2: C-terminal BirA substrate peptide (BSP), enzymatically biotinylated; its letters are not printed in the patent and it is left out); experiment: phage ELISA, streptavidin plate, anti-M13-HRP
T7 construct: also called biotinylated control peptide A2E-15/HLA-A*02:01 monomer
Procedure: as §1

Bio-P19 member A2E-16 = target: T8, Bio-P19 member A2E-16 (chain 2: C-terminal BirA substrate peptide (BSP), enzymatically biotinylated; its letters are not printed in the patent and it is left out); experiment: phage ELISA, streptavidin plate, anti-M13-HRP
T8 construct: also called biotinylated control peptide A2E-16/HLA-A*02:01 monomer
Procedure: as §1

Bio-P19 member A2E-17 = target: T9, Bio-P19 member A2E-17 (chain 2: C-terminal BirA substrate peptide (BSP), enzymatically biotinylated; its letters are not printed in the patent and it is left out); experiment: phage ELISA, streptavidin plate, anti-M13-HRP
T9 construct: also called biotinylated control peptide A2E-17/HLA-A*02:01 monomer
Procedure: as §1

Bio-P19 member A2E-19 = target: T10, Bio-P19 member A2E-19 (chain 2 carries a C-terminal BirA substrate peptide (BSP), enzymatically biotinylated; the BSP letters are not given in the patent and are left out); experiment: phage ELISA, streptavidin plate, anti-M13-HRP
T10 construct: also called biotinylated control peptide A2E-19/HLA-A*02:01 monomer
Procedure: as §1

Bio-P19 member A2E-21 = target: T11, Bio-P19 member A2E-21 (chain 2 carries a C-terminal BirA substrate peptide (BSP), enzymatically biotinylated; the BSP letters are not given in the patent and are left out); experiment: phage ELISA, streptavidin plate, anti-M13-HRP
T11 construct: also called biotinylated control peptide A2E-21/HLA-A*02:01 monomer
Procedure: as §1

Bio-P19 member A2E-4 = target: T12, Bio-P19 member A2E-4 (chain 2 carries a C-terminal BirA substrate peptide (BSP), enzymatically biotinylated; the BSP letters are not given in the patent and are left out); experiment: phage ELISA, streptavidin plate, anti-M13-HRP
T12 construct: also called biotinylated control peptide A2E-4/HLA-A*02:01 monomer
Procedure: as §1

Bio-P19 member A2E-5 = target: T13, Bio-P19 member A2E-5 (chain 2 carries a C-terminal BirA substrate peptide (BSP), enzymatically biotinylated; the BSP letters are not given in the patent and are left out); experiment: phage ELISA, streptavidin plate, anti-M13-HRP
T13 construct: also called biotinylated control peptide A2E-5/HLA-A*02:01 monomer
Procedure: as §1

Bio-P19 member A2E-6 = target: T14, Bio-P19 member A2E-6 (chain 2 carries a C-terminal BirA substrate peptide (BSP), enzymatically biotinylated; the BSP letters are not given in the patent and are left out); experiment: phage ELISA, streptavidin plate, anti-M13-HRP
T14 construct: also called biotinylated control peptide A2E-6/HLA-A*02:01 monomer
Procedure: as §1

Bio-P19 member A2E-7 = target: T15, Bio-P19 member A2E-7 (chain 2 (heavy): C-terminal BirA substrate peptide, biotinylated there by BirA; tag letters not given, left out); experiment: phage ELISA, streptavidin plate, anti-M13-HRP
T15 construct: also called biotinylated control peptide A2E-7/HLA-A*02:01 monomer; not shown: BirA substrate peptide (BSP) tag at the C-terminus of the heavy chain
Procedure: as §1

Bio-P19 member A2E-8 = target: T16, Bio-P19 member A2E-8 (chain 2 (heavy): C-terminal BirA substrate peptide, biotinylated there by BirA; tag letters not given, left out); experiment: phage ELISA, streptavidin plate, anti-M13-HRP
T16 construct: also called biotinylated control peptide A2E-8/HLA-A*02:01 monomer; not shown: BirA substrate peptide (BSP) tag at the C-terminus of the heavy chain
Procedure: as §1

Bio-P19 member A2E-9 = target: T17, Bio-P19 member A2E-9 (chain 2 (heavy): C-terminal BirA substrate peptide, biotinylated there by BirA; tag letters not given, left out); experiment: phage ELISA, streptavidin plate, anti-M13-HRP
T17 construct: also called biotinylated control peptide A2E-9/HLA-A*02:01 monomer; not shown: BirA substrate peptide (BSP) tag at the C-terminus of the heavy chain
Procedure: as §1

Measured: binding result

B1: PSA146/HLA-A*02:01-specific scFv phage clone #18 (scFv, V domains shown)
VH: QVQLVQSGAEVKKPGESLKISCKGSGYSFTSYWIGWVRQMPGKGLEWMGIIYPGDSDTRYSPSFQGQVTISADKSISTAYLQWSSLKASDTAMYYCARWGSRGFLDAFDIWGQGTMVTVSS
VL: QSVVTQPPSVSAAPGQRVTISCSGSSSNIGNNYVSWYQQLPGAAPRLLIYDNDKRPSGIPDRFSGSKSGTSATLGITGLQTGDEADYYCGTWDSSLSSGVFGGGTKLTVLG
no binding: all assays above
